{"source": "paper PMC11087511", "key": {"[1]": {"molecular_target": "T1, human alpha-thrombin (human, UniProt P00734;P00734 328-363;364-622)", "assay": "BLI; kon 3.9e7 M-1s-1, koff 2.1e-3 s-1; DAB moiety binds active site; not given in the material (Methods for BLI and fluorogenic assay are headings only)"}, "[2]": {"molecular_target": "thrombin S195A (UniProt P00734;P00734 315-363;364-622, S568A)", "assay": "X-ray crystallography; 2.2 A; Na+; DAB in S1 pocket, aptamer at exosite 2; not given in the material (Methods for BLI and fluorogenic assay are headings only)"}, "[3]": {"molecular_target": "T1, human alpha-thrombin", "assay": "inhibition of fluorogenic peptide cleavage; DAB moiety contributes; max inhibition >99%; not given in the material (Methods for BLI and fluorogenic assay are headings only)"}, "[4]": {"molecular_target": "T1, human alpha-thrombin", "assay": "inhibition of fluorogenic peptide cleavage; maximum inhibition 55%; not given in the material (Methods for BLI and fluorogenic assay are headings only)"}, "[5]": {"molecular_target": "T1, human alpha-thrombin", "assay": "inhibition of fluorogenic peptide cleavage; maximum inhibition 30%; not given in the material (Methods for BLI and fluorogenic assay are headings only)"}, "[6]": {"molecular_target": "T1, human alpha-thrombin", "assay": "BLI; not given in the material (Methods for BLI and fluorogenic assay are headings only)"}}, "data": [{"binder": "AAAAAAAAGTCCGTGGTAGGGCAGGTTGGGGTGACT (structured_DNA, 5' C6-dabigatran)", "note": "[Bio-HD22-7A-DAB]", "values": [{"measurement": "Kd", "setting": "[1]", "value": 0.054, "unit": "nM"}]}, {"binder": "AAAAAAAAGTCCGTGGTAGGGCAGGTTGGGGTGACT (structured_DNA, 5' C6-dabigatran)", "note": "[HD22-7A-DAB]", "values": [{"measurement": "binding result", "setting": "[2]", "value": "binds"}, {"measurement": "IC50", "setting": "[3]", "value": 0.1, "unit": "nM"}]}, {"binder": "AGTCCGTGGTAGGGCAGGTTGGGGTGACT (structured_DNA, 5' C6-dabigatran)", "note": "[HD22-0A-DAB]", "values": [{"measurement": "IC50", "setting": "[4]", "value": 0.55, "unit": "nM"}]}, {"binder": "AGTCCGTGGTAGGGCAGGTTGGGGTGACT (structured_DNA)", "note": "[HD22]", "values": [{"measurement": "IC50", "setting": "[5]", "value": 0.95, "unit": "nM"}]}, {"binder": "AAAAAAAAGTCCGTAATAAAGCAGGTTAAAATGACT (ssDNA, 5' C6-amine)", "note": "[Bio-HD23-7A-NH2]", "values": [{"measurement": "binding result", "setting": "[6]", "value": "no binding"}]}]}
